One assay concerns the target T1, human ICOS ligand (human, UniProt O75144 19-258, limits assumed).
T1 construct: also called hICOSL
T1 sequence (looked up): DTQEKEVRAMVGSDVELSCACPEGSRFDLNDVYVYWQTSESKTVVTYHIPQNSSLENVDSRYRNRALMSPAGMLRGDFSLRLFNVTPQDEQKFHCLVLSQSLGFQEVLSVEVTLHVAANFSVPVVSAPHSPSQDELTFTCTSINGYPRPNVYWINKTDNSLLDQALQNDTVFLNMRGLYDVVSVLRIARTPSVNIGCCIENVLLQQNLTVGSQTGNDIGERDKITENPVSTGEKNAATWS
Put plainly: binding ELISA on human and mouse ICOS ligands (FIG. 11). (In general: In an ELISA, binding on a coated surface is turned into a signal by an enzyme label.)

In a further assay the target is T2, mouse ICOS ligand (mouse, UniProt Q9JHJ8 47-279, limits assumed).
T2 construct: the construct is not described; also called mICOSL
T2 sequence (looked up): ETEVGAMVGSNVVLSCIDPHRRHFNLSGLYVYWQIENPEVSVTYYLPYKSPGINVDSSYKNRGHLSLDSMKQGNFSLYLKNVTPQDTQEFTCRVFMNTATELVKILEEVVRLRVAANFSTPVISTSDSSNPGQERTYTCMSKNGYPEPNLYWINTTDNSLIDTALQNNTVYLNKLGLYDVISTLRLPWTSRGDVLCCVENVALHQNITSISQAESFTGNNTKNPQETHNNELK
Described as above.

Assay [1] concerns the target T3, human Tumour Necrosis Factor alpha (hTNFα) (human, UniProt P01375 77-233).
T3 construct: Coated on ELISA plates, amine-coupled to the BIAcore chip, or biotinylated on Octet streptavidin sensors; soluble in the L929 assay; also called rhTNFα; hTNF-alpha
Kind of assay: kinetics on hTNFα, Table 1 (instrument for Ka/Kd not stated).

The target of assay [2] is T3, human Tumour Necrosis Factor alpha …. Kind of assay: cell-based or functional assay.
Assay [3] shares this target. Kind of assay: SPR, BIAcore T200, TNFα amine-coupled to chip, 1:1 Langmuir fit. In general terms: Surface plasmon resonance follows binding to a sensor surface in real time, without labels.
The target is the same in assay [4]. Put plainly: BLI, Octet RED96, biotinylated hTNF-α on streptavidin sensors.
The target of the next assay is T4, Mouse TNFα (mouse, UniProt P06804 80-235).
T4 sequence (looked up): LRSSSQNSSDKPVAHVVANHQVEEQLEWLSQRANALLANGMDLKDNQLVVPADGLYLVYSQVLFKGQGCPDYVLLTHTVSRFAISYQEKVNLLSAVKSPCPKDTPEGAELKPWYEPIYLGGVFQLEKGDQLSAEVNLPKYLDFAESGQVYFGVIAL
Put plainly: cell-based or functional assay.

Assay [5] deals with T3, human Tumour Necrosis Factor alpha …. Put plainly: binding profile of humanised D1 versions on hTNF-alpha (FIG. 16).
Assay [6] shares this target. Kind of assay: statement in the legend of the Caco-2 permeability assay (FIG. 8). (In general: Passage across Caco-2 layers is used to estimate intestinal permeability.)
Assay [7] shares this target. Put plainly: BLI, Octet RED96, biotinylated hTNF-α on streptavidin sensors (BIAcore cell is n/a).

Numbering of substitutions follows the chain as printed.

As a reminder, the koff is the rate constant with which the complex falls apart. By kon is commonly meant the second-order rate constant of association. A word on the Kd: it is the equilibrium constant for the complex coming apart. Low readings indicate higher affinity, high ones lower affinity.

T3 sequence (P01375 77-233 limits assumed): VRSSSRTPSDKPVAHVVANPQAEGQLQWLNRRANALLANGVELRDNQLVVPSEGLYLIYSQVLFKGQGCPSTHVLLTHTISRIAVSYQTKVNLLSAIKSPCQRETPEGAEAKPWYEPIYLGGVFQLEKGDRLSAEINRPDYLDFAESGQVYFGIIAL

B1: ICOS VNAR CC3-Fc-2D4 (Fc fusion)
chain: TRVDQTPRTATKETGESLTINCVLTDTEYGLFSTSWFRKNPGTTDWERMSIGGRYVESVNKGAKSFSLRIKDLTVADSATYYCKALGWWPPAFPHWYDGAGTVLTVNGGGGSGGGGRTEPKSSDKTHTCPPCPAPEAAGAPSVFLFPPKPKDTLMISRTPEVTCVVVDVSHEDPEVKFNWYVDGVEVHNAKTKPREEQYNSTYRVVSVLTVLHQDWLNGKEYKCKVSNKALPAPIEKTISKAKGQPREPQVYTLPPSREEMTKNQVSLTCLVKGFYPSDIAVEWESNGQPENNYKTTPPVLDSDGSFFLYSKLTVDKSRWQQGNVFSCSVMHEALHNHYTQKSLSLSPGKTAAAATAAAATAAAATAAAATRVDQTPRTATKETGESLTINCVLTDTDYGLFSTSWFRKNPGTTDWERMSIGGRYVESVNKGAKSFSLRIKDLTVADSATYYCKAFTWPWEWPDRWFRPWYDGAGTVLTVN
notes: Human IgG1 Fc; also called anti-ICOSL Quad-X™ construct
Consider B1, for which the binding result in the assay with human ICOS ligand and with mouse ICOS ligand was “binds” in each case.

B2: TNF VNAR D1-BA11-D1 (VNAR)
chain: ARVDQTPQTITKETGESLTINCVLRDSHCATSSTYWYRKKSGSTNEESISKGGRYVETVNSGSKSFSLRINDLTVEDSGTYRCASECQYGLAEYDVYGGGTVVTVNGGGGSGGGGSGGGGSGGGGSGAHSTRVDQSPSSLSASVGDRVTITCVLTDTSYPLYSTYWYRKNPGSSNKEQISISGRYSESVNKGTKSFTLTISSLQPEDSATYYCRAMSTNIWTGDGAGTKVEIKGGGGSGGGGSGGGGSGGGGSGAHSARVDQTPQTITKETGESLTINCVLRDSHCATSSTYWYRKKSGSTNEESISKGGRYVETVNSGSKSFSLRINDLTVEDSGTYRCASECQYGLAEYDVYGGGTVVTVNHHHHHHHEQKLISEEDL
notes: Tandem VNAR trimer with His and myc tags
In assay [1], B2 came in with a koff of 0.0002 s⁻¹. The kon in assay [1] is 1.9e+06 M⁻¹ s⁻¹. Also, the “ND50 (nM), neutralisation of hTNF-alpha cytotoxicity in L929 cells” value (from here on “ND50 (nM), neutralisation”) in assay [2] was 0.38 nM. Further, the Kd in [3] was 4 nM; in [4], 0.1 nM.

B3: TNF S17-Quad-X™ with (Gly4Ser)5 (Fc fusion)
chain: ASVNQTPRTATKETGESLTINCVLTDTHAKVFTTSWFRKNPGTTDWERMSIGGRYVESVNKGAKSFSLRIKDLTVADSATYICRAGGYLSQPRVYWDVYGAGTVLTVNGGGGSGGGGRTEPRGPTIKPCPPCKCPAPNLLGGPSVFIFPPKIKDVLMISLSPIVTCVVVDVSEDDPDVQISWFVNNVEVHTAQTQTHREDYNSTLRVVSALPIQHQDWMSGKEFKCKVNNKDLPAPIERTISKPKGSVRAPQVYVLPPPEEEMTKKQVTLTCMVTDFMPEDIYVEWTNNGKTELNYKNTEPVLDSDGSYFMYSKLRVEKKNWVERNSYSCSVVHEGLHNHHTTKSFSRTPGKGGGGSGGGGSGGGGSGGGGSGAHSASVNQTPRTATKETGESLTINCVLTDTHAKVFTTSWFRKNPGTTDWERMSIGGRYVESVNKGAKSFSLRIKDLTVADSATYICRAGGYLSQPRVYWDVYGAGTVLTVN
On to B3, for which the “fold improvement of in vitro neutralizing potency over S17-Fc” value in the assay with Mouse TNFα is roughly 40 fold.

B4: SoloMER™ VNAR D1-v2 (VNAR)
VNAR: ARVDQSPSSLSASVGDRVTITCVLRDSHCATSSTYWYRKKSGSTNEESISKGGRYVETVNSGSKSFTLTISSLQPEDFATYYCASECQYGLAEYDVYGGGTKVEIKH
notes: Humanised D1 VNAR with His tag; also called soloMER D1-v2
For B4, the binding result in assay [5] is listed as “binds”.

B5: SoloMER™ VNAR D1-v4 (VNAR)
VNAR: B4 VNAR with S41P, Y55F, V56S, E57G, T58S, V59G, N60S, Y97F, G99Q
notes: Humanised D1 VNAR with His tag
On to B5, for which the binding result in assay [5] is on record as “binds”.

B6: SoloMER™ VNAR D1-v3 (VNAR)
VNAR: B4 VNAR with R38Q, K39Q, S41P, S43K
notes: as for B5
For the molecule B6, the binding result in assay [5] was “binds”.

B7: TNF VNAR B4 (VNAR)
VNAR: ARVDQTPQTITKETGESLTINCVLRDSNCALSSMYWYRKKSGSTNEESISKGGRYVETVNSGSKSFSLRINDLTVEDSGTYRCKVYIPCIDELVYMISGGTSGPIHDVYGGGTVVTVNA
notes: Nurse shark VNAR single domain, expressed with His and myc tags
B7: the binding result in assay [6] is reported as “binds”.

B8: TNF VNAR DIMER D1-B4 (VNAR)
chain: ARVDQTPQTITKETGESLPINCVLRDSHCATSSTYWYRKKSGSTNEESISKGGRYVETVNSGSKSFSLRINDLTVEDSGTYRCASECQYGLAEYDVYGGGTVVTVNGGGGSGGGGGSGAHSARVDQTPQTITKETGESLTINCVLRDSNCALSSMYWYRKKSGSTNEESISKGGRYVETVNSGSKSFSLRINDLTVEDSGTYRCKVYIPCIDELVYMISGGTSGPIHDVYGGGTVVTVNAAAHHHHHHGAAEQKLISEEDL
For the molecule B8, in assay [1], the koff came out at 0.0005 s⁻¹ and the kon came to 270000 M⁻¹ s⁻¹. The “ND50 (nM), neutralisation” value in assay [2] worked out at 8 nM. This molecule also came in with a Kd in [7] of 15.9 nM.

B9: ICOS VNAR CC3-Fc-CC3 (Fc fusion)
chain: TRVDQTPRTATKETGESLTINCVLTDTEYGLFSTSWFRKNPGTTDWERMSIGGRYVESVNKGAKSFSLRIKDLTVADSATYYCKALGWWPPAFPHWYDGAGTVLTVNGGGGSGGGGRTEPKSSDKTHTCPPCPAPEAAGAPSVFLFPPKPKDTLMISRTPEVTCVVVDVSHEDPEVKFNWYVDGVEVHNAKTKPREEQYNSTYRVVSVLTVLHQDWLNGKEYKCKVSNKALPAPIEKTISKAKGQPREPQVYTLPPSREEMTKNQVSLTCLVKGFYPSDIAVEWESNGQPENNYKTTPPVLDSDGSFFLYSKLTVDKSRWQQGNVFSCSVMHEALHNHYTQKSLSLSPGKTAAAATAAAATAAAATAAAATRVDQTPRTATKETGESLTINCVLTDTEYGLFSTSWFRKNPGTTDWERMSIGGRYVESVNKGAKSFSLRIKDLTVADSATYYCKALGWWPPAFPHWYDGAGTVLTVN
notes: as for B1
With B9, the binding result with mouse ICOS ligand is reported as “binds”.

B10: TNF VNAR DIMER D1-D1 (VNAR)
chain: ARVDQTPQTITKETGESLTINCVLRDSHCATSSTYWYRKKSGSTNEESISKGGRYVETVNSGSKSFSLRINDLTVEDSGTYRCASECQYGLAEYDVYGGGTVVTVNGGGGSGGGGGSGAHSARVDQTPQTITKETGESLTINCVLRDSHCATSSTYWYRKKSGSTNEESISKGGRYVETVNSGSKSFSLRINDLTVEDSGTYRCASECQYGLAEYDVYGGGTVVTVNAAAHHHHHHGAAESKLISEEDL
B10: in assay [1], the koff stood at 0.000316 s⁻¹ and the kon is 500000 M⁻¹ s⁻¹. The “ND50 (nM), neutralisation” value in assay [2] stood at 7 nM. The molecule also registered a Kd in assay [7] of 0.6 nM.

B11: TNF VNAR D1-BA11-B4 (VNAR)
chain: ARVDQTPQTITKETGESLTINCVLRDSHCATSSTYWYRKKSGSTNEESISKGGRYVETVNSGSKSFSLRINDLTVEDSGTYRCASECQYGLAEYDVYGGGTVVTVNGGGGSGGGGSGGGGSGGGGSGAHSTRVDQSPSSLSASVGDRVTITCVLTDTSYPLYSTYWYRKNPGSSNKEQISISGRYSESVNKGTKSFTLTISSLQPEDSATYYCRAMSTNIWTGDGAGTKVEIKGGGGSGGGGSGGGGSGGGGSGAHSARVDQTPQTITKETGESLTINCVLRDSNCALSSMYWYRKKSGSTNEESISKGGRYVETVNSGSKSFSLRINDLTVEDSGTYRCKVYIPCIDELVYMISGGTSGPIHDVYGGGTVVTVNHHHHHHHEQKLISEEDL
notes: as for B2
As for B11, in [1], the koff worked out at 0.006 s⁻¹ and the kon came out at 1.7e+06 M⁻¹ s⁻¹. The same molecule returned a Kd in [7] of 0.33 nM.
